Assay results reported in patent US20220119789A1.

Target: Trx-VL(NP)-GUS(IV-5)KW (Escherichia coli)
Test: cell-based or functional assay

average S/B ratio in 11 minutes after the beginning of reaction (GUS activity): 13 | average S/B ratio in 20 minutes after the beginning of reaction (GUS activity): 42.3
Substance: PentaHis antibody (QIAGEN)
